Assay results: patent US6903203B2, “Monoclonal antibody to CEA, conjugates comprising said antibody and their therapeutic use” (AstraZeneca UK Ltd., priority 1996, dated 2005)

T1: CEA (Homo sapiens, UniProt P06731)
T1 sequence (P06731 35-676): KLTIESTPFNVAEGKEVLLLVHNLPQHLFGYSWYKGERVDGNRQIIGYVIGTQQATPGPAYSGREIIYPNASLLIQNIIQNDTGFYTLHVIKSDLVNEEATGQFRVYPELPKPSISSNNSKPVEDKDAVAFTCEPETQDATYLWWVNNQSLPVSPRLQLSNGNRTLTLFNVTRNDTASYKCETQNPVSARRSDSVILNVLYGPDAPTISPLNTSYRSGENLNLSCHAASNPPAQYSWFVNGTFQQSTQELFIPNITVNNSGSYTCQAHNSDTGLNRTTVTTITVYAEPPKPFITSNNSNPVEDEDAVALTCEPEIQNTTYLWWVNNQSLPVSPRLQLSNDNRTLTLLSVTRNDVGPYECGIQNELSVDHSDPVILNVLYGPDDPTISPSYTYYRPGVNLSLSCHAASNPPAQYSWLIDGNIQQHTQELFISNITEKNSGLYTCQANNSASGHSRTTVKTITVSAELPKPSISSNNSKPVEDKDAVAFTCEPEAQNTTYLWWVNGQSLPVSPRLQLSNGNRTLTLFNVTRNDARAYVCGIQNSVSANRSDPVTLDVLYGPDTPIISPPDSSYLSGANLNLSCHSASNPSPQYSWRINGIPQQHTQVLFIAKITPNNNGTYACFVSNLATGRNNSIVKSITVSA


Experiments:
CEA = molecular target: T1, CEA; assay: CEA binding ELISA; conditions: media of NS0 clones
Experimental: For the CEA ELISA each well of a 96 well immunoplate (NUNC MAXISORB™) was coated with 50 ng CEA in 50 mM carbonate/bicarbonate coating buffer pH9.6 (buffer capsules—Sigma C3041) and incubated at 4° C. overnight. The plate was washed three times with PBS+0.05% Tween 20 and then blocked 150 μl per well of 1% BSA in PBS +0.05% Tween 20 for 1 hour at room temperature. The plate was washed as previously described, 100 μl of test sample added per well and incubated at room temperature for 2 hours. Again the plate was washed three times with PBS+0.05% Tween 20, 100 μl per well of a 1/500 dilution of HRPO-labelled goat anti-human kappa antibody (Sigma A 7164) was added, in 1% BSA in PBS-Tween 20 and incubated at room temperature on a rocking platform for at least 1 hour. The plate was washed as before and then once more with PBS. To detect binding add 100 μl per well developing solution (one capsule of phosphate-citrate buffer—Sigma P4922—dissolved in 100 mls H2O to which is added one 30 mg tablet o-phenylenediamine dihydrochloride—Sigma P8412) and incubated for up to 15 minutes. The reaction was stopped by adding 75 μl 2M H2SO4, and absorbance read at 490 nm.
Media from wells containing single viable clones was taken for testing and replaced with fresh media (containing G418). […]

Ovary tumours = assay: Three-stage indirect immunohistology on frozen sections, ovary tumours; assay type: binding, human; conditions: Ovary tumours (n=3), any tumour; 2 μg/ml
Experimental: (§1) To assess selectivity, many human normal and tumour tissues have been screened for reactivity with the antibody 806.077, using sensitive three-stage indirect immunohistology on acetone-fixed, frozen cryostat sections.
(§2) Immunohistology was carried out on sections of human tissue obtained either at resection surgery or at post mortem. To preserve optimal morphology and antigenicity, tissues were obtained as fresh as possible, cut into small pieces (about 0.5 cm^3) and flash frozen in liquid nitrogen prior to storage at −80° C. Sections of tissue (6μ) were cut on a cryostat, mounted on polylysine coated slides (e.g. blue TECHMATE™ slides, Dako) and fixed in ice-cold acetone for 2 minutes before being wrapped in foil and stored at −80° C.
(§3) Slides were allowed to defrost at room temperature before being unwrapped from the foil immediately prior to use. Each section was outlined with a diamond marker, and to each section was added either 100 μl 806.077 antibody diluted to 2 μg/ml in Tris-buffered Saline (TBS), or 100 μl CEA/NCA reactive control (A5B7 antibody) at 2 μg/ml in TBS, or 100 μl MOPC isotype control (Sigma Chemical Company, St. Louis, U.S.A., Cat. No. M 9269) at 2 μg/ml in TBS, or relevant positive control such as LP34 (Dako). All subsequent incubations were carried out at room temperature for 30 minutes in a humidified chamber: all wash steps were in TBS with 2 changes. […]

[1] = system: Spleen (granulocyte/NCA reactivity); assay: Three-stage indirect immunohistology on frozen sections, normal spleen; assay type: binding, human
Experimental: as §1, §2, §3

Colon tumours = assay: Three-stage indirect immunohistology on frozen sections, colon tumours; assay type: binding, human; conditions: tissue culture supernatant neat and diluted 1:10
Experimental: as §1, §2
(§4) Slides were allowed to defrost at room temperature before being unwrapped from the foil immediately prior to use. […] Louis, U.S.A., Cat. No. M 9269) at 2 μg/ml in TBS, or relevant positive control such as LP34 (Dako). All subsequent incubations were carried out at room temperature for 30 minutes in a humidified chamber: all wash steps were in TBS with 2 changes. After incubation, the slides were washed and 100 μl of second antibody reagent, comprising 1/50 rabbit anti-mouse immunoglobulins conjugated to horse radish peroxidase (Dako Patts) and ⅕ normal human serum (Sigma) in TBS was added to each section.
The slides were again incubated and washed in TBS. […]

[2] = system: Post mortem normal tissues; assay: Three-stage indirect immunohistology on frozen sections, post mortem normal tissues; assay type: binding, human; conditions: cerebellum, mid-brain, cerebrum, smooth muscle, liver, kidney, aorta, stomach, heart; 2 μg/ml
Experimental: as §1, §2, §3

Breast tumours = assay: Three-stage indirect immunohistology on frozen sections, breast tumours; assay type: binding, human; set-up: key: +++ (strong)=antibody binding to >75% tumour cells; ++ (moderate)=antibody binding to 50%-75% tumour cells; + (weak)=antibody binding to 25%-50% tumour cells; +/− (minimal)=non-focal antibody binding to a small area of tumour cells; −=no staining; conditions: Breast tumours (n=6), score seen in 2/6 tumours; 2 μg/ml
Experimental: as §1, §2, §3

NSCLC tumours = assay: Three-stage indirect immunohistology on frozen sections, NSCLC tumours; assay type: binding, human; conditions: NSCLC tumours (n=6), score seen in 1/6 tumours; 2 μg/ml
Experimental: as §1, §2, §3

prostate tumours = assay: Three-stage indirect immunohistology on frozen sections, prostate tumours; assay type: binding, human; conditions: prostate tumours (n=3), any tumour; 2 μg/ml
Experimental: as §1, §2, §3

Lung (NCA reactivity) = assay: Three-stage indirect immunohistology on frozen sections, normal lung; assay type: binding, human; set-up: key to degree of binding (staining score): +++ (strong)=antibody binding to >75% tumour cells; ++ (moderate)=antibody binding to 50%-75% tumour cells; + (weak)=antibody binding to 25%-50% tumour cells; +/− (minimal)=non-focal antibody binding to a small area of tumour cells; −=no staining
Experimental: as §1, §2, §4
The slides were again incubated and washed in TBS. A final detecting antibody, 100 μl swine anti-rabbit immunoglobulin conjugated to horse radish peroxidase ( 1/50 dilution with ⅕ normal human serum in TBS), was added to each section, incubated and washed thoroughly. DAB substrate (3,3′-diaminobenzidine tetrahydrochloride) was prepared using 1 DAB tablet (Sigma) with hydrogen peroxide (17 μl) in TBS (17 ml), and added dropwise through a fast filter paper (e.g. Whatman Number 4). After 3 minutes incubation the excess DAB was tapped off the slides and the slides were washed in TBS. […]

Row | antibody binding to CEA in an ELISA (CEA) | binding compared to A5B7 ([1]; normal spleen, tissue culture supernatant neat and diluted 1:10) | binding compared to A5B7 (Colon tumours) | degree of binding (staining score) (Breast tumours) | degree of binding (staining score) (Lung (NCA reactivity); normal lung (n=14), score seen in 10/14 tissues, 2 μg/ml) | binding compared to A5B7 (Lung (NCA reactivity); normal lung, tissue culture supernatant neat and diluted 1:10) | Molecule | staining (Ovary tumours) | staining ([1]; spleen (n=6), any of the tissues tested, 2 μg/ml) | reactivity [2] | degree of binding (staining score) (NSCLC tumours) | staining (prostate tumours) | staining of normal lung tissues (summary statement) (Lung (NCA reactivity); 4/14 normal lung tissues tested)
1 | positive |  |  |  |  |  | Example 75: [A248S,G251T,D253K]HCPB fused via (GGGS)3 linker to N-terminus of humanised 806.077 Fd (HuVH1-HuIgG3), with HuVK4-HuCK light chain (antibody) heavy: HHGGEHFEGEKVFRVNVEDENHINIIRELASTTQIDFWKPDSVTQIKPHSTVDFRVKAEDTVTVENVLKQNELQYKVLISNLRNVVEAQFDSRVRATGHSYEKYNKWETIEAWTQQVATENPALISRSVIGTTFEGRAIYLLKVGKAGQNKPAIFMDCGFHAREWISPAFCQWFVREAVRTYGREIQVTELLDKLDFYVLPVLNIDGYIYTWTKSRFWRKTRSTHTGSSCIGTDPNRNFDAGWCEIGASRNPCDETYCGPAAESEKETKALADFIRNKLSSIKAYLTIHSYSQMMIYPYSYAYKLGENNAELNALAKATVKELASLHGTKYTYGPGATTIYPSAGTSKDWAYDQGIRYSFTFELRDTGRYGFLLPESQIRATCEETFLAIKYVASYVLEHLYGGGSGGGSGGGSEVQLQQSGPGLVRPSQTLSLTCTASGFNIKDNYMHWVRQPPGRGLEWIGWIDPENGDTEYAPKFRGRVTMLADTSKNQFSLRLSSVTAADTAVYYCHVLIYAGYLAMDYWGQGTLVTVSSASTKGPSVFPLAPCSRSTSGGTAALGCLVKDYFPEPVTVSWNSGALTSGVHTFPAVLQSSGLYSLSSVVTVPSSSLGTQTYTCNVNHKPSNTKVDKRVELKTPLGDTTHTCPRCPEPKSCDTPPPCPRCPEPKSCDTPPPCPRCPEPKSCDTPPPCPRCPAPELLGG light: DIQMTQSPSSLSASVGDRVTITCSASSSVTYMHWYQQKPGKAPKLWIYSTSNLASGVPSRFSGSGSGTDYTFTISSLQPEDIATYYCQQRSTYPLTFGQGTKLEIKRTVAAPSVFIFPPSDEQLKSGTASVVCLLNNFYPREAKVQWKVDNALQSGNSQESVTEQDSKDSTYSLSSTLTLSKADYEKHKVYACEVTHQGLSSPVTKSFNRGEC |  |  |  |  |  | 
2 |  | much reduced binding | equivalent binding | +/− | − | much reduced binding | 806.077 antibody: novel murine anti-CEA monoclonal antibody from hybridoma 806.077, ECACC deposit no. 96022936 (antibody, V domains shown) VH: EVQLQQSGAELVRSGASVKLSCTASGFNIKDNYMHWVKQRPEQGLEWIAWIDPENGDTEYAPKFRGKATLTADSSSNTAYLHLSSLTSEDTAVYYCHVLIYAGYLAMDYWGQGTSVAVSS VL: DIELTQSPAIMSASPGEKVTITCSASSSVTYMHWFQQKPGTSPKLWIYSTSNLASGVPARFSGSGSGTSYSLTISRMEAEDAATYYCQQRSTYPLTFGAGTKLELKRA | No staining | No staining | negative | ++ (++ (moderate)=antibody binding to 50%-75% tumour cells) | No staining | minimal staining
